# Assay results reported in publication PMC10403546 (2023).
# Biological target: X18 gp120
# Test: SPR
binder,measurement,value
"bNAb F6 Fab (for SPR) (Fab, V domains shown) VH: QVQLQQWGTGLLKPSETLSLTCAVYGVSLRGYYWTWIRQSPKKGLEWIGEIDEIGRTKYSQSLRSRATLSIDTSKKQFSLRLTSVTAADMATYYCARWRLMMVDEVTRHGMDVWSQGTMVTVSS VL: DIVMTQSPLSLSVAPGEAASISCRSTQSLLNRNGDNYLEWYLRRPGRSPQLLIYLGSERALGVPDRFSGSGSGRDFTLKISRVEAQDVGTYYCLQTRQGAFTFGQGTKLEIK",Kd,32.5 nM
